Assay results as given in patent US20180282422A1 (DINGFU BIOTARGET, published 2018).

T1: hOX40-EGFP on HEK293 cells (human, UniProt P43489 29-277)
T1 construct: EGFP fusion on transfected HEK293 cells; not shown: enhanced green fluorescent protein (EGFP), UniProt C5MKY7
T1 sequence (looked up): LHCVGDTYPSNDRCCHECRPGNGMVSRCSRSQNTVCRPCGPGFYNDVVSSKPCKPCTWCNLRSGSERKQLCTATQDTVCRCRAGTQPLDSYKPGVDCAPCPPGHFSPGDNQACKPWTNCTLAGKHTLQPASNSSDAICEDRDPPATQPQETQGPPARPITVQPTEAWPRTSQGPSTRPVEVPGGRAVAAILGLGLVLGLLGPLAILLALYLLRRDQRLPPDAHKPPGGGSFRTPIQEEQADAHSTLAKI

T2: hCD27-EGFP on HEK293 cells (human, UniProt P26842 20-260)
T2 construct: EGFP fusion on transfected HEK293 cells; not shown: enhanced green fluorescent protein (EGFP), UniProt C5MKY7
T2 sequence (looked up): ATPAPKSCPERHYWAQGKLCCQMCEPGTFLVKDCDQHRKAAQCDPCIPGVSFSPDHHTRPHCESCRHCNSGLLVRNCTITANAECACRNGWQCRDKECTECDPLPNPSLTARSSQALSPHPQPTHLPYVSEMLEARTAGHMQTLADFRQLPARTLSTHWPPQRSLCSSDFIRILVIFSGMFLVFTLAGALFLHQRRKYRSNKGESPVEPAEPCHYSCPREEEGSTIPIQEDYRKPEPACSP

T3: hGITR-EGFP on HEK293 cells (human, UniProt Q9Y5U5 26-241)
T3 construct: EGFP fusion on transfected HEK293 cells; not shown: enhanced green fluorescent protein (EGFP), UniProt C5MKY7
T3 sequence (looked up): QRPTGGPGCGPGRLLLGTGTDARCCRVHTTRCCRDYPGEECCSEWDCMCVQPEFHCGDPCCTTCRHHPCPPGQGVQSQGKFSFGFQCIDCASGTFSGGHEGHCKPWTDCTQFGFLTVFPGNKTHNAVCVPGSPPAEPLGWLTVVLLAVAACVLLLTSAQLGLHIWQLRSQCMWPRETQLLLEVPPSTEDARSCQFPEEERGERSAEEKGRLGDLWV

T4: RhCD137-muFc (rhesus monkey; mouse)
T4 construct: Residues 1-186 as stated; no signal peptide cleavage site is stated; also called Rhesus monkey CD137; CD137 of rhesus monkey
T4 chain: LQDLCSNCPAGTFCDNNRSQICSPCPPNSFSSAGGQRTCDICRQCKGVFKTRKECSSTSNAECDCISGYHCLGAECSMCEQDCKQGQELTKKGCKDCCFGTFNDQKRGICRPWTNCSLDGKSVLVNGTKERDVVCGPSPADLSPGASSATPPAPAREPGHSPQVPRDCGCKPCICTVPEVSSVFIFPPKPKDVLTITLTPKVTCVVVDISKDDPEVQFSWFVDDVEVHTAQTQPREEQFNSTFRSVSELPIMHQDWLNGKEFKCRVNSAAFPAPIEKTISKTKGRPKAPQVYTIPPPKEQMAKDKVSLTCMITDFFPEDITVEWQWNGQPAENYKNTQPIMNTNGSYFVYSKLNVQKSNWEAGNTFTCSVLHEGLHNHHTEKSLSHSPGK


Experiments:
hCD137-muFc [1] = target: T5, hCD137-muFc (human; mouse, UniProt Q07011 24-186); assay: SPR, BIAcore X100; scFv captured by anti-hFc on a CM5 chip, CD137-muFc as analyte 1000-31.6 nM; 1:1 Langmuir model
T5 construct: range 1-186; It states no cleavage site; Made in HEK293 and purified on protein A; also called recombinant human CD137; not shown: mouse IgG1-Fc (muFc) domain, residues 98-324 of UniProt P01868
Method: (§1) The binding kinetics of anti-hCD137 C2scFv and C14 scFv antibodies against the recombinant human CD137 were measured by surface plasmon resonance (SPR) process using a BIAcore X100 instrument. Anti-hFc antibody (not cross-identifying mouse Fc) was conjugated on CM5 chip, C2 scFv or C14 scFv was diluted to 5 nM with running buffer and captured as a ligand by the antibody on the chip. CD137-muFc was diluted with running buffer to 1000-31.6 nM, diluted twice to a total of 6 concentrations. The injection time was 180 s, the dissociation time was 1800 s and the regeneration time was 60 s. The running buffer was HBS-EP+, and the regeneration buffer was 10 mM glycine-HCl (pH 2.0). The association rate (Kₒₙ) and the dissociation rate (Koff) were calculated using a simple one-to-one Languir binding model (BIAcore Evaluation Software version 3.2). The equilibrium dissociation constant (KD) was calculated as the ratio of Koff/Kₒₙ.

[2] = target: T1, hOX40-EGFP on HEK293 cells; assay: flow cytometry on transfected HEK293 cells, anti-hIg-PE
Method: (§2) HEK293 cells expressing hCD137-EGFP, hOX40-EGFP, hCD27-EGFP and hGITR-EGFP constructed in Example 1 were resuspended in 0.5% PBS-BSA Buffer and anti-hCD137 C2scFv and C14 scFv protein were added, the negative control was hIgG Fe protein, then the mixture was incubated on ice for 20 min. After washing, secondary antibody anti-hIg-PE (eBioscience) was added and was incubated on ice for 20 min. After washing, the cells were resuspended in 500 μL of 0.5% PBS-BSA Buffer and detected by flow cytometry.
(§3) HEK293 cells expressing hCD137-EGFP, hOX40-EGFP, hCD27-EGFP and hGITR-EGFP constructed in Example 1 were resuspended in 0.5% PBS-BSA Buffer and anti-hCD137 C14 mAb protein was added, the negative control was hIgG Fc protein, then the mixture was incubated on ice for 20 min. After washing, a secondary antibody anti-hlg-PE (eBioscience) was added and incubated on ice for 20 min. After washing, the cells were resuspended in 500 μL 0.5% PBS-BSA Buffer and detected by flow cytometry.

[3] = target: T2, hCD27-EGFP on HEK293 cells; assay: as above
Method: as §2, §3

[4] = target: T3, hGITR-EGFP on HEK293 cells; assay: as above
Method: as §2, §3

RhCD137-muFc = target: T4, RhCD137-muFc; assay: ELISA, RhCD137-muFc coated at 5 ug/mL, antibody titrated 3-fold, goat anti-hIgG-HRP, OD450-650
Method: RhCD137-muFc was diluted to 5 μg/mL 100 μL/well, with coating buffer (50 mM Na₂CO₃, NaHCO₃ pH 9.6), overnight at 4° C. After washing, the plates were blocked with 3% BSA-PBS for 1 h at 37° C. Anti-hCD137 14#mAbnew antibodies were respectively diluted from 2000 ng/mL and were diluted 3-fold, with the diluent (1% BSA-PBS) as a control, and incubated for 2 h at 37° C. Goat anti-hIgG-HRP conjugated was added and incubated for 1 h at 37° C. The soluble one-component TMB substrate developing solution was added, and the developing was performed in dark at room temperature for 5-10 min. 2N H₂SO₄ 50 μL/well was added to terminate the color development reaction. The OD_{450 nm-650 nm} values were read on MD Spectra Max Plus 384 microplate reader, and SoftMax Pro v5.4 was used for data processing and diagraph analysis, with the results shown in FIG. 8, in which it can be seen that anti-hCD137 14#mAb new may bind to CD137 of rhesus monkey.

hCD137-muFc [5] = target: T5, hCD137-muFc; assay: SPR, BIAcore X100; anti-hFc on a CM5 chip, CD137-muFc as analyte 100-3.16 nM; 1:1 Langmuir model
Method: as §1, with “antibody” for “C2scFv and C14 scFv antibodies”, “CD137-muFc” for “C2 scFv or C14 scFv”, “nM (C14Mab) or 100-3.16 nM (C14 Mab new),” for “nM,”

| Binder | Kd (hCD137-muFc [1]) [nM] | koff (hCD137-muFc [1]) [s⁻¹] | kon (hCD137-muFc [1]) [M⁻¹ s⁻¹] | binding result [2] | binding result [3] | binding result [4] | binding result (RhCD137-muFc) | Kd (hCD137-muFc [5]) [nM] | koff (hCD137-muFc [5]) [s⁻¹] | kon (hCD137-muFc [5]) [M⁻¹ s⁻¹] |
| --- | --- | --- | --- | --- | --- | --- | --- | --- | --- | --- |
| anti-hCD137 C14 scFv (scFv, The junction between scFv and Fc is not described; also called anti-CD137 14#ScFv; not shown: human IgG1-Fc domain, residues 104-330 of UniProt P01857) scFv: QVQLQQSGPGLVKPSQTLSLTCAISGDSVSSNSAAWNWIRQSPSRGLEWLGRTYYRSKWYNDYAPSVESRITINPDTSKNQFSLQLSSVTPEDTAVYYCARDPPYVLSTFDIWGQGTMVTVSSGGGGSGGGGSGGGGSNFMLTQPPSVSESPGKTVTISCTRSSGNIASFYVQWFQQRPGSSPTTVIYEDDQRPSGVPDRFSGSIDRSSNSASLTISGLTTDDEADYYCQSYDTNNVIFGGGTKLTVL | 23.8 | 0.000263 | 11200 | no binding | no binding | no binding | – | – | – | – |
| anti-hCD137 C2 scFv (scFv, The junction between scFv and Fc is not described; not shown: human IgG1-Fc domain, residues 104-330 of UniProt P01857) scFv: EVQLVESGGGLVQPGGSLRLSCAASGFTVSDYYMNWIRQAPGKGLEWVSYISSSASGSTIYYADSVKGRFTISRDNANNSLYLHMDSLRAEDTAIYFCARVVPAGSGWRWFDPWGQGTLVTVSSGGGGSGGGGSGGGGSQSVLIQPPSASGSPGQSVTISCTGISSDVGAYDYVSWYQQHPGKVPKLMIYEVSKRPSGVPDRFSGSKSGDTASLTVSGLQAEDEADYYCSSHAGSNNFYVFGTGTKLTVL | 11.6 | 0.000128 | 11000 | no binding | no binding | no binding | – | – | – | – |

Further lines, results first:

| Kd (hCD137-muFc [1]) [nM] | koff (hCD137-muFc [1]) [s⁻¹] | kon (hCD137-muFc [1]) [M⁻¹ s⁻¹] | binding result [2] | binding result [3] | binding result [4] | binding result (RhCD137-muFc) | Kd (hCD137-muFc [5]) [nM] | koff (hCD137-muFc [5]) [s⁻¹] | kon (hCD137-muFc [5]) [M⁻¹ s⁻¹] | Binder |
| --- | --- | --- | --- | --- | --- | --- | --- | --- | --- | --- |
| – | – | – | – | – | – | binds | 2.68 | 0.000907 | 338000 | anti-CD137 14#mAb new (antibody, V domains shown, L50 E to D, L93 T to I and L95 N to K against C14; IgG4 / lambda; also called C14 mAbnew; C14 Mab new; not shown: human IgG4 constant region, UniProt P01861 (same method as C14mAb); human lambda light chain constant region, UniProt A0M8Q6 (same method as C14mAb)) VH: QVQLQQSGPGLVKPSQTLSLTCAISGDSVSSNSAAWNWIRQSPSRGLEWLGRTYYRSKWYNDYAPSVESRITINPDTSKNQFSLQLSSVTPEDTAVYYCARDPPYVLSTFDIWGQGTMVTVSS VL: NFMLTQPPSVSESPGKTVTISCTRSSGNIASFYVQWFQQRPGSSPTTVIYDDDQRPSGVPDRFSGSIDRSSNSASLTISGLTTDDEADYYCQSYDINKVIFGGGTKLTVL |
| – | – | – | no binding | no binding | no binding | – | – | – | – | anti-hCD137 C14 mAb (antibody, human IgG4, V domains shown, domain: constant region; Human IgG4 / lambda antibody made in HEK293; also called anti-CD137 14#mAb; not shown: human immunoglobulin lambda light chain constant region, UniProt A0M8Q6) VH: QVQLQQSGPGLVKPSQTLSLTCAISGDSVSSNSAAWNWIRQSPSRGLEWLGRTYYRSKWYNDYAPSVESRITINPDTSKNQFSLQLSSVTPEDTAVYYCARDPPYVLSTFDIWGQGTMVTVSS VL: NFMLTQPPSVSESPGKTVTISCTRSSGNIASFYVQWFQQRPGSSPTTVIYEDDQRPSGVPDRFSGSIDRSSNSASLTISGLTTDDEADYYCQSYDTNNVIFGGGTKLTVL |
